From PMC11964265
Where “and” joins values, the source holds several entries; their conditions need not be identical. Equal values may be shown once.

Legend:
[1] = molecular target: Cathepsin L holoenzyme from human liver (human)
[2] = molecular target: Recombinant human cathepsin K holoenzyme (human) (UniProt P43235)
[3] = molecular target: Naegleria fowleri cystatin (recombinant, without signal presequence) (Naegleria fowleri (strain HB-1)); assay: SEC; analytical size-exclusion chromatography, Superdex 200 Increase 10/300 GL, 20 mM Tris-HCl, 150 mM NaCl, pH 7.5; mass from calibration with Gel Filtration Standard (Bio-Rad)

Cathepsin L holoenzyme from human liver (human), sequence (P07711 18-333): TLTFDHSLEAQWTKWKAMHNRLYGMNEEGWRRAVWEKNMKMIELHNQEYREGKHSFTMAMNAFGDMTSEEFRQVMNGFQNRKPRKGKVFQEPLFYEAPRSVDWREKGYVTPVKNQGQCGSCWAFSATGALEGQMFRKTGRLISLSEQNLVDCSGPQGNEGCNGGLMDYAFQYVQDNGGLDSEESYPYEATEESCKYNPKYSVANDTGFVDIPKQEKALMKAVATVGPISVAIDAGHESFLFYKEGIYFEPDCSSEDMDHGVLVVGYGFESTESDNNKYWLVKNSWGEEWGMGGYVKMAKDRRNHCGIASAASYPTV
Recombinant human cathepsin K holoenzyme (human), sequence (P43235 16-329): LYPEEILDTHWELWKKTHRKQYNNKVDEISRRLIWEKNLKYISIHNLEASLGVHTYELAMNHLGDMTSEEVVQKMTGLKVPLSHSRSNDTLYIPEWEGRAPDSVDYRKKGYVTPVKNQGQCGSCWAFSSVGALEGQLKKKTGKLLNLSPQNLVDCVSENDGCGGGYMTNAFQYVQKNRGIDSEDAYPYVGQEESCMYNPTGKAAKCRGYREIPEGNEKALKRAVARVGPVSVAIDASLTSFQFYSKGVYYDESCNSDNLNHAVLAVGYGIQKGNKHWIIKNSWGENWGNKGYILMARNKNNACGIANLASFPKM

Substance: Naegleria fowleri cystatin (recombinant, without signal presequence) (natural protein)
- IC50 of inhibition of peptidase activity (Z-Phe-Arg-AMC cleavage), 50 nM enzyme, 5 nM – 2 µM Nf cystatin, pH 5.5 [1]: 517 nM
- IC50 of inhibition of peptidase activity (Z-Phe-Arg-AMC cleavage), 50 nM enzyme, 5 nM – 2 µM Nf cystatin, pH 5.5 [2]: 31 nM
- stoichiometry N [3]: 4 and 2
